The text below walks through data of patent publication US7423125.

Data set [1] concerns the target T1, Flt4 extracellular domain with C-terminal 6×His tag (Flt4EC), baculovirus-produced (human, UniProt P35916 25-775).
T1 construct: extracellular domain; also called Flt4EC-Sepharose
T1 sequence: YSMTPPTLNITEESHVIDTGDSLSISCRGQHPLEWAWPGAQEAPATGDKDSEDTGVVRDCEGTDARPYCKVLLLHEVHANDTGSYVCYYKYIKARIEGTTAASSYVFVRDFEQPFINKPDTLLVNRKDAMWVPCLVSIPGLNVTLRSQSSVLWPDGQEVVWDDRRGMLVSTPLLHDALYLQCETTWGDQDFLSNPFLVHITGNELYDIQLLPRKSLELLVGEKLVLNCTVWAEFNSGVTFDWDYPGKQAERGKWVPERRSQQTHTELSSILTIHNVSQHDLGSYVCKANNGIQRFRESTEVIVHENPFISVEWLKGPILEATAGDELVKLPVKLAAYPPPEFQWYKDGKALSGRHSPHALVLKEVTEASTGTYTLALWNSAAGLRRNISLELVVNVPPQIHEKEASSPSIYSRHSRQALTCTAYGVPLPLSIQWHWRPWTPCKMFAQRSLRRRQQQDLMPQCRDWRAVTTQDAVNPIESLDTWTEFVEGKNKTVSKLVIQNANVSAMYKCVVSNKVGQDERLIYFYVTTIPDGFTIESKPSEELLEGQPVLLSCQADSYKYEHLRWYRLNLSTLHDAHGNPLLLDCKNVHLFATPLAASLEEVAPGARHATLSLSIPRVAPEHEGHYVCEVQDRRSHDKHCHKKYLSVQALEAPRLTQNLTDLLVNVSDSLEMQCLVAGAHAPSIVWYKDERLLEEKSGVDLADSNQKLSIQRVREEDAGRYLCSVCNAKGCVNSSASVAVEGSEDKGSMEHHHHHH
In words: depletion of conditioned medium on Flt4EC-Sepharose.

For data set [2], the target named is T2, Flt4 receptor tyrosine kinase (VEGFR-3) expressed on cells (human, UniProt P35916 25-1363).
T2 construct: whole, on cells; also called LTRFlt4l; NIH 3T3-Flt4 cells
In words: Scatchard analysis with 125I-labelled ligand. How it is done:
(§1) To study receptor binding, PAE/VEGFR-2 and PAE/VEGFR-3 cells were seeded into 24-well tissue culture plates (Nunclon), which had been coated with 2% gelatin in PBS. […] The binding was allowed to proceed at room temperature for 90 minutes. The plates were then transferred onto ice and washed three times with ice-cold PBS containing 0.1% BSA. The cells were then lysed in 1 M NaOH, the lysates were collected, and the radioactivity was measured using a γ-counter.

Data set [3] has as its target T3, KDR (VEGFR-2) expressed on porcine aortic endothelial cells (UniProt P35968 20-1356, limits assumed).
T3 construct: whole, on cells; also called KDR/Flk-1; PAE-KDR cells
As to the kind of experiment: Scatchard analysis with 125I-labelled ligand. How it is done: as §1

Data set [4] concerns the molecule itself. As to the kind of experiment: homodimer formation, chemical crosslinking.
The target of data set [5] is T4, VEGFR-2EC-Ig (three Ig loops of the VEGFR-2 extracellular domain fused to an immunoglobulin heavy chain … (UniProt P35968 20-327, limits assumed)).
T4 construct: domain: three Ig loops of the extracellular domain; also called VEGFR-2EC domain; not shown: immunoglobulin heavy chain constant region, not specified
As to the kind of experiment: receptor binding studies.

For data set [6], the target named is T5, VEGFR-3EC-Ig (seven Ig loops of the VEGFR-3 extracellular domain fused to an immunoglobulin heavy chain … (UniProt P35916 25-775, limits assumed)).
T5 construct: domain: seven Ig loops of the extracellular domain; also called VEGFR-3EC domain; not shown: immunoglobulin heavy chain constant region, not specified
T5 sequence (looked up): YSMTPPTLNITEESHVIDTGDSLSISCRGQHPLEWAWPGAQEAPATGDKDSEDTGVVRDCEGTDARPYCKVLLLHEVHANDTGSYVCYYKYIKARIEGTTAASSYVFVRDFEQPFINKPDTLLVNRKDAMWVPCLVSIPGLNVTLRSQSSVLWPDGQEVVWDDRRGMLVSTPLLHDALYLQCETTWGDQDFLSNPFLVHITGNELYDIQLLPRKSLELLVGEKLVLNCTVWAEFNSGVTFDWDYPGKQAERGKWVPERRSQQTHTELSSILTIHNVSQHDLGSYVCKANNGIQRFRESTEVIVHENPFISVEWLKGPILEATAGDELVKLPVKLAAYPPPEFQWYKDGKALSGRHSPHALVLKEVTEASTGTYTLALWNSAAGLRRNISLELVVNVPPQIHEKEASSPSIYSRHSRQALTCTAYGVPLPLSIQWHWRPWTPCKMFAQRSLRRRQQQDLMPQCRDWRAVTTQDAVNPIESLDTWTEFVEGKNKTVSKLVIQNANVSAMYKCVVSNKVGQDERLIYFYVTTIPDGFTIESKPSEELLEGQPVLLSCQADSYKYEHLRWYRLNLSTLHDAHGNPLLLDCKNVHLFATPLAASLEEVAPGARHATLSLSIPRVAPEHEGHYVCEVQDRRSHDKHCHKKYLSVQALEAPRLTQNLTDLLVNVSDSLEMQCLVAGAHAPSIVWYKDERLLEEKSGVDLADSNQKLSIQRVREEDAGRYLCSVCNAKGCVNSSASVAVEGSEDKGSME
In words: receptor binding studies.

Data set [7] deals with the molecule itself. As to the kind of experiment: chemical crosslinking.
Data set [8] concerns the target T3, KDR (VEGFR-2) expressed on porcine …. In words: competition with 125I-VEGF-CΔNΔCHis on PAE/VEGFR-2 cells. The method, then:
as §1

For data set [9], the target named is T4, VEGFR-2EC-Ig (three Ig loops of the …). In words: pull-down of 35S-labelled protein with VEGFR-2EC-Ig. How it is done:
An aliquot of the transfected cells were metabolically labelled for 6 hours with 100 microcuries/ml of the PRO-MIX™ L-[^35S] in vitro cell labelling mix (Amersham).

T3 sequence (P35968 20-1356 limits assumed): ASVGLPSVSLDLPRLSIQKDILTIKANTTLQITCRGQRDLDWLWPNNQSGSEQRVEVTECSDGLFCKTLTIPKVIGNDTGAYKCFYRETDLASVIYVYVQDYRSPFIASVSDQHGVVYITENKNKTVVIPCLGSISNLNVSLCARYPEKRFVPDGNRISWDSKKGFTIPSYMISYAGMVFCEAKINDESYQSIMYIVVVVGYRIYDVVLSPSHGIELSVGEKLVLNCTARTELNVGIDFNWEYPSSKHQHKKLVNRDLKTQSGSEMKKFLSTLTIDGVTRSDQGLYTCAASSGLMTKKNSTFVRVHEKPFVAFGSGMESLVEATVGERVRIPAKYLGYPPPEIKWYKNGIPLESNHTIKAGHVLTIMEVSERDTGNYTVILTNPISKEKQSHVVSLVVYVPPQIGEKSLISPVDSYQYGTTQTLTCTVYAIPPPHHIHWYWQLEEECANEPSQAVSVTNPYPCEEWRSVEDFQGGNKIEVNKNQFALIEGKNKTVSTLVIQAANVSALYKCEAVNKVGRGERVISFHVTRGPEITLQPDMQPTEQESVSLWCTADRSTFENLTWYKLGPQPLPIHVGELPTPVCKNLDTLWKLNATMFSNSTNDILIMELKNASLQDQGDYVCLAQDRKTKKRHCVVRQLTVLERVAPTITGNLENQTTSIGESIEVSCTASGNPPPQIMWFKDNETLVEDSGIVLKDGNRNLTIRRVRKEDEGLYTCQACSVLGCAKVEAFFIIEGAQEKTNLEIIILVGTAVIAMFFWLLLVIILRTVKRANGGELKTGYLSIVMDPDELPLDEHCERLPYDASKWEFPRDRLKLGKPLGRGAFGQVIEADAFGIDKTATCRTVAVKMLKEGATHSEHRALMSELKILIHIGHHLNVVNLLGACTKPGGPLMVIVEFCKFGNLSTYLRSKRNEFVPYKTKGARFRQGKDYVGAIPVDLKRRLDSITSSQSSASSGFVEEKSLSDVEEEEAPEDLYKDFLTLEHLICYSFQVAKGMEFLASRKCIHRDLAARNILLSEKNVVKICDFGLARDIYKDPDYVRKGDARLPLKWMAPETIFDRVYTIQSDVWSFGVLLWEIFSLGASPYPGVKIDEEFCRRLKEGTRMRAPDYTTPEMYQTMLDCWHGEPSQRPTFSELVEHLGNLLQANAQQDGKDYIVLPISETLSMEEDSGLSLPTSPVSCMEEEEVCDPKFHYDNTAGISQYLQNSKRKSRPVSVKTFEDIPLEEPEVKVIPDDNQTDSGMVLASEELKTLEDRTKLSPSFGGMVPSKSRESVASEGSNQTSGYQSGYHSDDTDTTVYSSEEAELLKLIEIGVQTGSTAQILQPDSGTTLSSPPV
T4 sequence (P35968 20-327 limits assumed): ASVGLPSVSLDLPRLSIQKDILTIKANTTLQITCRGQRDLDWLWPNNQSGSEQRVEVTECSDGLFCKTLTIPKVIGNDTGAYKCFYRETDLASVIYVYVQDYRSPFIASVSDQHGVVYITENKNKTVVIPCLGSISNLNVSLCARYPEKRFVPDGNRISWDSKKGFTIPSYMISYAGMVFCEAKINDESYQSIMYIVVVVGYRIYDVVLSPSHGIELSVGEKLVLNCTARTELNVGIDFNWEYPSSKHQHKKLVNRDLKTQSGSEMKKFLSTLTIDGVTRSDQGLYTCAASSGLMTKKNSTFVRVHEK

B1: Flt4 ligand of about 23 kD from PC-3 cell conditioned medium (naturally processed VEGF-C) (ligand)
chain: TEETIKFAAAHYNTEILKSIDNEWRKTQCMPREVCIDVGKEFGVATNTFFKPPCVSVYRCGGCCNSEGLQCMNTSTSYLSKTLFEITVPLSQGPKPVTISFANHTSCRCMSKLDVYRQVHSIIRR
notes: also called 23 kD polypeptide; 21-23 kD form (PC-3)
With B1, in [1], the binding result is given as “binds”.

B2: VEGF-C ΔNΔCHis (ligand)
chain: TEETIKFAAAHYNTEILKSIDNEWRKTQCMPREVCIDVGKEFGVATNTFFKPPCVSVYRCGGCCNSEGLQCMNTSTSYLSKTLFEITVPLSQGPKPVTISFANHTSCRCMSKLDVYRQVHSIIHHHHHH
notes: the yeast protein was iodinated as tracer; also called VEGF-C ΔCΔNHis; recombinantly-matured VEGF-C
For the molecule B2, the figures for the dissociation constant (Kd) in data set [2] and in data set [3] were 0.135 nM and 0.41 nM, respectively. For the same molecule, the binding result in [4] is recorded as “binds”.

B3: VEGF-CΔNΔCHis C165S (ligand)
chain: TEETIKFAAAHYNTEILKSIDNEWRKTQCMPREVCIDVGKEFGVATNTFFKPPCVSVYRCGGSCNSEGLQCMNTSTSYLSKTLFEITVPLSQGPKPVTISFANHTSCRCMSKLDVYRQVHSIIHHHHHH
notes: also called C165S form
For the molecule B3, the binding result in [5], in data set [6] and in data set [7] was “no binding” throughout.

B4: VEGF-CΔNΔCHis C156,165S (ligand)
chain: TEETIKFAAAHYNTEILKSIDNEWRKTQCMPREVCIDVGKEFGVATNTFFKPPSVSVYRCGGSCNSEGLQCMNTSTSYLSKTLFEITVPLSQGPKPVTISFANHTSCRCMSKLDVYRQVHSIIHHHHHH
notes: also called C156,165S form
Take B4: the binding result in data set [5], in data set [6] and in data set [7] was “no binding” throughout.

B5: VEGF-CΔNΔCHis C156S (ligand)
chain: TEETIKFAAAHYNTEILKSIDNEWRKTQCMPREVCIDVGKEFGVATNTFFKPPSVSVYRCGGCCNSEGLQCMNTSTSYLSKTLFEITVPLSQGPKPVTISFANHTSCRCMSKLDVYRQVHSIIHHHHHH
notes: also called VEGF-CΔNΔCH is R156S (as printed once); VEGF-C ΔNΔC156S
With B5, the binding result was “no binding” in data set [8], “no binding” in data set [9] and “binds” in [4].

B6: VEGF-C R226,227S (ligand)
chain: FESGLDLSDAEPDAGEATAYASKDLEEQLRSVSSVDELMTVLYPEYWKMYKCQLRKGGWQHNREQANLNSRTEETIKFAAAHYNTEILKSIDNEWRKTQCMPREVCIDVGKEFGVATNTFFKPPCVSVYRCGGCCNSEGLQCMNTSTSYLSKTLFEITVPLSQGPKPVTISFANHTSCRCMSKLDVYRQVHSIISSSLPATLPQCQAANKTCPTNYMWNNHICRCLAQEDFMFSSDAGDDSTDGFHDICGPNKELDEETCQCVCRAGLRPASCGPHKELDRNSCQCVCKNKLFPSQCGANREFDENTCQCVCKRTCPRNQPLNPGKCACECTESPQKCLLKGKKFHHQTCSCYRRPCTNRQKACEPGFSYSEEVCRCVPSYWKRPQMS
notes: The C-terminal cleavage site is destroyed; N-terminal processing may still occur; also called non-processed VEGF-C R226,227S
Regarding B6, the binding result in data set [8] is reported as “binds”.

Broadly, the Kd is a measure of binding affinity in units of concentration.
